The supplement of paper PMC9112550, “Optimization of the antimicrobial peptide Bac7 by deep mutational scanning” (BMC Biology, 2022)

system: Escherichia coli TOP10; assay: shrunken log2 fold change of peptide-encoding DNA abundance (4.5 h post-induction vs induction); higher = less antimicrobial activity (less host growth inhibition); details: time post-induction: 4.5 h; library: site-saturation at positions 5, 18, 19, 20
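Further: peptides expressed intracellularly from a pBAD plasmid library in pooled LB shake-flask culture, induced with 0.3% L-arabinose, DNA abundance read by NGS, three biological replicates, DESeq2 with apeglm shrinkage.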

Sequence	shrunken log2 fold change
RRIRHRPPRLPRPRPRPYSLPRP	-0.319
RRIRERPPRLPRPRPRPQMNPRP	-0.276
RRIRIRPPRLPRPRPRPENYPRP	-0.405
RRIRWRPPRLPRPRPRPMVQPRP	0.121
RRIRPRPPRLPRPRPRPTENPRP	0.138
RRIRMRPPRLPRPRPRPRYKPRP	0.104
RRIRCRPPRLPRPRPRPELVPRP	0.423
RRIRQRPPRLPRPRPRPMPEPRP	-0.237
RRIRQRPPRLPRPRPRPALQPRP	0.145
RRIRVRPPRLPRPRPRPQGGPRP	-0.0824
RRIRLRPPRLPRPRPRPNTVPRP	-0.0627
RRIRTRPPRLPRPRPRPDVTPRP	-0.06
RRIRVRPPRLPRPRPRPREQPRP	0.0561
RRIRTRPPRLPRPRPRPGIGPRP	0.17
RRIRSRPPRLPRPRPRPMSAPRP	0.202
RRIRVRPPRLPRPRPRPDFWPRP	0.239
RRIRCRPPRLPRPRPRPQRCPRP	-0.0802
RRIRERPPRLPRPRPRPPHTPRP	-0.152
RRIRPRPPRLPRPRPRPDEYPRP	-0.015
RRIRFRPPRLPRPRPRPHRLPRP	0.0835
RRIRFRPPRLPRPRPRPPFEPRP	0.347
RRIRLRPPRLPRPRPRPHETPRP	-0.236
RRIRARPPRLPRPRPRPLSDPRP	0.248
RRIRCRPPRLPRPRPRPPDRPRP	0.394
RRIRSRPPRLPRPRPRPWLKPRP	0.0524

Sequence	shrunken log2 fold change
RRIRHRPPRLPRPRPRPELEPRP	-0.0141
RRIRLRPPRLPRPRPRPYYYPRP	-1.03
RRIRIRPPRLPRPRPRPGFMPRP	-0.487
RRIRKRPPRLPRPRPRPNFDPRP	0.367
RRIRIRPPRLPRPRPRPYLMPRP	-0.143
RRIRERPPRLPRPRPRPNESPRP	0.0842
RRIRGRPPRLPRPRPRPLQAPRP	1.86
RRIRQRPPRLPRPRPRPMFRPRP	-0.0146
RRIRWRPPRLPRPRPRPPKQPRP	1.07
RRIRCRPPRLPRPRPRPPTRPRP	0.645
RRIRCRPPRLPRPRPRPNHDPRP	-0.589
RRIRRRPPRLPRPRPRPLYHPRP	-0.353
RRIRTRPPRLPRPRPRPAHQPRP	3.43
RRIRDRPPRLPRPRPRPTCEPRP	0.705
RRIRARPPRLPRPRPRPWGKPRP	0.0748
RRIRQRPPRLPRPRPRPNTEPRP	-0.0119
RRIRCRPPRLPRPRPRPHLTPRP	-0.229
RRIRWRPPRLPRPRPRPFLWPRP	0.0802
RRIRRRPPRLPRPRPRPPWYPRP	0.0413
RRIRFRPPRLPRPRPRPVTVPRP	-0.264
RRIRTRPPRLPRPRPRPCATPRP	-0.0683
RRIRARPPRLPRPRPRPTKAPRP	0.437
RRIRIRPPRLPRPRPRPARLPRP	-0.0547
RRIRDRPPRLPRPRPRPVTRPRP	0.348
RRIRYRPPRLPRPRPRPRSIPRP	-0.276

Sequence	shrunken log2 fold change
RRIRNRPPRLPRPRPRPKLAPRP	0.0921
RRIRERPPRLPRPRPRPNNGPRP	-0.0529
RRIRNRPPRLPRPRPRPAHEPRP	-0.0423
RRIRKRPPRLPRPRPRPDLPPRP	0.222
RRIRYRPPRLPRPRPRPTCVPRP	-0.503
RRIRMRPPRLPRPRPRPMDHPRP	-0.00783
RRIRERPPRLPRPRPRPYCAPRP	-0.533
RRIRSRPPRLPRPRPRPLGQPRP	-0.0571
RRIRQRPPRLPRPRPRPNNNPRP	-0.825
RRIRGRPPRLPRPRPRPIHNPRP	-0.268
RRIRNRPPRLPRPRPRPKWWPRP	0.0325
RRIRQRPPRLPRPRPRPWICPRP	0.117
RRIRRRPPRLPRPRPRPRCQPRP	0.385
RRIRSRPPRLPRPRPRPKIVPRP	-0.265
RRIRMRPPRLPRPRPRPRSMPRP	-0.00173
RRIRARPPRLPRPRPRPFCHPRP	-0.083
RRIRARPPRLPRPRPRPRAFPRP	0.398
RRIRNRPPRLPRPRPRPNDSPRP	-0.235
RRIRPRPPRLPRPRPRPCGLPRP	0.148
RRIRMRPPRLPRPRPRPMIMPRP	0.421
RRIRVRPPRLPRPRPRPLVLPRP	-0.122
RRIRKRPPRLPRPRPRPLNEPRP	0.0114
RRIRFRPPRLPRPRPRPSYIPRP	-0.41
RRIRCRPPRLPRPRPRPYEIPRP	-0.00133
RRIRYRPPRLPRPRPRPDATPRP	0.104

Sequence	shrunken log2 fold change
RRIRDRPPRLPRPRPRPREIPRP	-0.00904
RRIRYRPPRLPRPRPRPGQCPRP	0.00338
RRIRIRPPRLPRPRPRPTSAPRP	0.065
RRIRTRPPRLPRPRPRPFCQPRP	0.101
RRIRMRPPRLPRPRPRPKSMPRP	0.0732
RRIRWRPPRLPRPRPRPFGYPRP	-0.0944
RRIRYRPPRLPRPRPRPTIPPRP	-0.572
RRIRLRPPRLPRPRPRPLHTPRP	-0.289
RRIRCRPPRLPRPRPRPHSWPRP	-0.301
RRIRPRPPRLPRPRPRPWARPRP	0.0379
RRIRNRPPRLPRPRPRPDTMPRP	-1.25
RRIRWRPPRLPRPRPRPTELPRP	0.135
RRIRYRPPRLPRPRPRPESMPRP	-0.267
RRIRPRPPRLPRPRPRPVTWPRP	-0.0661
RRIRRRPPRLPRPRPRPPDAPRP	0.768
RRIRKRPPRLPRPRPRPFKKPRP	0.00557
RRIRKRPPRLPRPRPRPHPRPRP	1.27
RRIRSRPPRLPRPRPRPCPKPRP	0.355
RRIRLRPPRLPRPRPRPQYPPRP	-0.765
RRIRTRPPRLPRPRPRPQAMPRP	0.00573
RRIRWRPPRLPRPRPRPIWEPRP	0.00194
RRIRYRPPRLPRPRPRPNNDPRP	-1.14
RRIRWRPPRLPRPRPRPIEKPRP	-0.221
RRIRSRPPRLPRPRPRPNTGPRP	-0.336
RRIRNRPPRLPRPRPRPIRRPRP	-0.163

Sequence	shrunken log2 fold change
RRIRDRPPRLPRPRPRPHMTPRP	-0.0927
RRIRQRPPRLPRPRPRPLCLPRP	-0.253
RRIRARPPRLPRPRPRPFWFPRP	0.0903
RRIRPRPPRLPRPRPRPLGFPRP	0.49
RRIRCRPPRLPRPRPRPHPVPRP	-0.207
RRIRHRPPRLPRPRPRPVHSPRP	0.0246
RRIRMRPPRLPRPRPRPHRLPRP	0.108
RRIRVRPPRLPRPRPRPEAGPRP	0.553
RRIRERPPRLPRPRPRPRGGPRP	0.376
RRIRMRPPRLPRPRPRPNIMPRP	-0.466
RRIRERPPRLPRPRPRPVYLPRP	-0.267
RRIRQRPPRLPRPRPRPSAGPRP	0.0717
RRIRKRPPRLPRPRPRPSNIPRP	-0.306
RRIRYRPPRLPRPRPRPLIDPRP	-0.00288
RRIRRRPPRLPRPRPRPHIQPRP	-0.114
RRIRFRPPRLPRPRPRPDNWPRP	-0.25
RRIRSRPPRLPRPRPRPHWFPRP	-0.0389
RRIRLRPPRLPRPRPRPSHYPRP	-0.367
RRIRQRPPRLPRPRPRPQYGPRP	-0.0763
RRIRDRPPRLPRPRPRPHITPRP	-0.7
RRIRQRPPRLPRPRPRPPWFPRP	-0.018
RRIRQRPPRLPRPRPRPSGTPRP	0.0732
RRIRGRPPRLPRPRPRPFHEPRP	-0.537
RRIRYRPPRLPRPRPRPSQCPRP	-0.115
RRIRDRPPRLPRPRPRPETSPRP	-0.0166

Sequence	shrunken log2 fold change
RRIRFRPPRLPRPRPRPNHTPRP	-0.626
RRIRLRPPRLPRPRPRPDEWPRP	-0.0118
RRIRKRPPRLPRPRPRPNNQPRP	-0.219
RRIRLRPPRLPRPRPRPRKHPRP	-0.0984
RRIRVRPPRLPRPRPRPGPFPRP	-0.0278
RRIRGRPPRLPRPRPRPYWVPRP	-0.178
RRIRQRPPRLPRPRPRPYVHPRP	-0.258
RRIRGRPPRLPRPRPRPYMEPRP	-0.164
RRIRYRPPRLPRPRPRPCTIPRP	-0.118
RRIRDRPPRLPRPRPRPMKVPRP	-0.0768
RRIRHRPPRLPRPRPRPDGSPRP	-0.0231
RRIRMRPPRLPRPRPRPYWIPRP	-0.157
RRIRSRPPRLPRPRPRPGDGPRP	0.78
RRIRGRPPRLPRPRPRPHYKPRP	-0.0643
RRIRIRPPRLPRPRPRPYHPPRP	-0.0475
RRIRMRPPRLPRPRPRPEGRPRP	3.21
RRIRSRPPRLPRPRPRPLHLPRP	-0.0832
RRIRNRPPRLPRPRPRPHERPRP	-0.13
RRIRQRPPRLPRPRPRPCPKPRP	4.03
RRIRGRPPRLPRPRPRPQDSPRP	0.135
RRIRSRPPRLPRPRPRPDTTPRP	-0.191
RRIRTRPPRLPRPRPRPAETPRP	0.139
RRIRKRPPRLPRPRPRPFVFPRP	0.277
RRIRYRPPRLPRPRPRPCWIPRP	-0.01
RRIRKRPPRLPRPRPRPHACPRP	0.0691
